Experimental findings from the nanobody polyreactivity screen of Harvey et al. (2022) are described below.

The data set in a line: yeast display, Sf9 membrane polyspecificity reagent, FACS + sequencing; frameworks hold sequencing errors. The gist of the method:
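After 36–48 hours of galactose induction, yeast (Saccharomyces cerevisiae BJ5465) displaying a synthetic nanobody library were stained at 4 °C for 1 hour with 10% biotinylated, detergent-solubilized Sf9 membrane reagent. Streptavidin microbeads enriched the stained cells before FACS sorting into low and high (top ~1%) gates on anti-HA and streptavidin fluorescence. Each clone's polyreactivity label reflects its gate of origin.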
“QVQLVESGGGLVQAGGSLRLSCAASGFTLNGYAMGWYRQAPGKERELVAAISSSGGRTYYADSVKGRFTISRDNAKNTVYLQMNCLKPEDTAVYYCAAVVYYEDGYWGQGTQVTVSS”: the “polyreactivity (PSR sort gate)” value is given as “low polyreactivity”. As for “QVQLVESGGGLVQAGGSLRLSCAASGFTLQGYAMGWYRQAPGKERELVAAIRWIGTSTYYADSVKGRFTISRDYAKNTVYFQMNSLKPEDTAVYYCAAYRYNTPFGYWGQGTQVTVSS”, the entry is “high polyreactivity”. For “QVQLVESGGGLVQAGGSLRLSCAASGFTLQVYDMGWYRQAPGKERELVADISGSGDSTNYADSVKGRFTISRDNAKNTVYLQMNSLKPEDNAVYYCAAEVRGGYYGYDYWGQGTQVTVSS” the value was “low polyreactivity”; for “QVQLVESGGGLVQAGGSLRLSCAASGFTLRAYAMGWYRQAPGKERELVAAISSGGSTYADSVKGRFTISRDNAKNTVYLQMNSLKPEDTAVYYCAADGSKLFYSKFRYVQYGYWGQGTQVTVSS”, “high polyreactivity”; for “QVQLVESGGGLVQAGGSLRLSCAASGFTLRAYAMGWYRQAPGKERELVAAITQRGTGTYYADSVKGRFTISRDNAKKTVFLQMNSLKPEDTAVYYCAAEAPRWSNYYYWGQGTQVSVSS”, “high polyreactivity”. As to “QVQLVESGGGLVQAGGSLRLSCAASGFTLRLNAMGWYRQAPGKERELVAAITTSDDGTYYADSVKGRFTISRDNAKNSVYLQLNSLKPEDTAVYYCAADYYSVLYDYWGQGTQVTVSS”, the “polyreactivity (PSR sort gate)” value is reported as “low polyreactivity”. As to “QVQLVESGGGLVQAGGSLRLSCAASGFTLRRNAMGWYRQAPGKERELVAAISRGGSTYYADSVKGRFTISRDNAKNTVYLQMNSLKPEDTAVYYCNAGWFKYYPNLQAFNYWGQGTQVTVSS”, the “polyreactivity (PSR sort gate)” value was “high polyreactivity”. For “QVQLVESGGGLVQAGGSLRLSCAASGFTLRYYAMGWYRQAPGKERELVAAITSGGGSTYYADSVKGRFTISRDNAKNTVYLQMNSLKPEDTAVYYCNAQYGSLYYAVVLSNIYNYWGQGTQVTVSS” the value was “high polyreactivity”. Take “QVQLVESGGGLVQAGGSLRLSCAASGFTLRYYAMGWYRQAPGKERELVADISWSGGRTYYADSVKGRFTISRDNAKNTVYLQMNSLKPEDTAVYYCAAVRYYAHVYKSVGYDYWGQGTQVTVSS”: the “polyreactivity (PSR sort gate)” value is reported as “high polyreactivity”. Take “QVQLVESGGGLVQAGGSLRLSCAASGFTLTAYAMGWYRQPPGKERELVAAITYTGGSTYYADSVKGRFTISRDNAKNTVYLQMNSLKPEDTAGYYCAAEFLSVPYDYGYWGQGTQVTVSS”: the “polyreactivity (PSR sort gate)” value is on record as “high polyreactivity”. With “QVQLVESGGGLVQAGGSLRLSCAASGFTLTRNAMGCYRQAPGKERELVAAISWSGGTTYYADSVKGRFTISRDNAKNTVYLQMNSLKPEDTAVYYCNTASWRAQYYYWGQGTQVTVSS”, the “polyreactivity (PSR sort gate)” value is listed as “high polyreactivity”. As for “QVQLVESGGGLVQAGGSLRLSCAASGFTLVGYAMGWYRQAPGKERELVADINYSGGRTYYADSVKGRFTISRDNAKNTVYLQMNSLNPEDTAVYYCNAAGALSWFYYGYDYWGQGTQVTVSS”, the entry is “low polyreactivity”; as for “QVQLVESGGGLVQAGGSLRLSCAASGFTLVLNAMGWYRQAPGKERELVAAIRRSAGSTYYADSVKGRFTISRDNAKNTVYLQLNSLKPEDTAVYYCAACFLWAKYAYGHWGTFNYWGQGTQVTVSS”, “low polyreactivity”; as for “QVQLVESGGGLVQAGGSLRLSCAASGFTLWLNAMGWYRQAPGTERELVAAITTSDDGTYYADSVKGRFTISRDNAKNTVYLQMNSLKPEDTAVYYCAADYYSVLYDYWGQGTQVTVSS”, “low polyreactivity”. On to “QVQLVESGGGLVQAGGSLRLSCAASGFTLYGNVMGWYRQAPGKERELVASISWSGGNTYYADSVKGRFTISRDNAKNTVYLQMNSLKPEDTAVYYCNANYYDKYGYWGQGTQVTVSS”, for which the “polyreactivity (PSR sort gate)” value is on record as “low polyreactivity”. With “QVQLVESGGGLVQAGGSLRLSCAASGFTLYVYDMGWYRQAHGKERELVAAINGGGSTNYADSVKGRFTISRDNAKNTVYLQMNSLKPEDTAVYYCAAEDAYGRDVYYGSDYWGQGTLVTVSS”, the “polyreactivity (PSR sort gate)” value is “low polyreactivity”.
